Experimental data published in patent publication US11504441B2, “Radiolabeled compounds targeting the prostate-specific membrane antigen” (PROVINCIAL HEALTH SERVICES AUTHORITY, priority 2019, dated 2022).

Assay: in vivo
Set-up: species or system mice
Details: male, NODSCID 1L2RγKO, mouse, iv, total radioactivity

## O=C(O)CCC[C@H](NC(=O)N[C@@H](CCCCNC(=O)[C@H](Cc1c2ccccc2cc2ccccc12)NC(=O)[C@H]1CC[C@H](CNC(=O)CN2CCN(CC(=O)O)CCN(CC(=O)O)CCN(CC(=O)O)CC2)CC1)C(=O)O)C(=O)O [177Lu-HTK03149, metal not drawn]
Adrenal glands uptake
  tissue uptake at 1 h: 0.35 ± 0.07 %ID/g
  tissue uptake at 4 h: 0.08 ± 0.01 %ID/g
  tissue uptake at 24 h: 0.07 ± 0.02 %ID/g
  tissue uptake at 72 h: 0.12 ± 0.05 %ID/g
  tissue uptake at 120 h: 0.02 ± 0.03 %ID/g
Blood uptake
  tissue uptake at 1 h: 0.88 ± 0.07 %ID/g
  tissue uptake at 4 h: 0.17 ± 0.03 %ID/g
  tissue uptake at 24 h: 0.12 ± 0.01 %ID/g
  tissue uptake at 72 h: 0.07 ± 0.02 %ID/g
  tissue uptake at 120 h: 0.02 ± 0.01 %ID/g
Bone uptake
  tissue uptake at 1 h: 0.07 ± 0.02 %ID/g
  tissue uptake at 4 h: 0.02 ± 0.01 %ID/g
  tissue uptake at 24 h: 0.03 %ID/g
  tissue uptake at 72 h: 0.03 ± 0.01 %ID/g
  tissue uptake at 120 h: 0.01 ± 0.01 %ID/g
Brain uptake
  tissue uptake at 1 h: 0.02 %ID/g
  tissue uptake at 4 h: 0.01 %ID/g
  tissue uptake at 24 h: 0.01 %ID/g
Fat uptake
  tissue uptake at 1 h: 0.14 ± 0.05 %ID/g
  tissue uptake at 4 h: 0.02 %ID/g
  tissue uptake at 24 h: 0.02 %ID/g
  tissue uptake at 72 h: 0.04 ± 0.04 %ID/g
  tissue uptake at 120 h: 0.01 ± 0.01 %ID/g
Heart uptake
  tissue uptake at 1 h: 0.28 ± 0.04 %ID/g
  tissue uptake at 4 h: 0.07 ± 0.01 %ID/g
  tissue uptake at 24 h: 0.06 %ID/g
  tissue uptake at 72 h: 0.06 ± 0.01 %ID/g
  tissue uptake at 120 h: 0.03 ± 0.01 %ID/g
Intestine uptake
  tissue uptake at 1 h: 0.27 ± 0.06 %ID/g
  tissue uptake at 4 h: 0.19 ± 0.07 %ID/g
  tissue uptake at 24 h: 0.09 ± 0.05 %ID/g
  tissue uptake at 72 h: 0.09 ± 0.03 %ID/g
  tissue uptake at 120 h: 0.31 ± 0.48 %ID/g
Kidneys uptake
  tissue uptake at 1 h: 7.67 ± 1.35 %ID/g
  tissue uptake at 4 h: 1.67 ± 0.38 %ID/g
  tissue uptake at 24 h: 0.6 ± 0.11 %ID/g
  tissue uptake at 72 h: 0.68 ± 0.39 %ID/g
  tissue uptake at 120 h: 0.28 ± 0.06 %ID/g
Lacrimal uptake
  tissue uptake at 1 h: 0.02 ± 0.01 %ID/g
  tissue uptake at 4 h: 0.03 ± 0.01 %ID/g
  tissue uptake at 72 h: 0.01 ± 0.01 %ID/g
Liver uptake
  tissue uptake at 1 h: 0.26 ± 0.03 %ID/g
  tissue uptake at 4 h: 0.11 ± 0.01 %ID/g
  tissue uptake at 24 h: 0.1 ± 0.01 %ID/g
  tissue uptake at 72 h: 0.13 ± 0.03 %ID/g
  tissue uptake at 120 h: 0.08 ± 0.04 %ID/g
Lungs uptake
  tissue uptake at 1 h: 0.72 ± 0.06 %ID/g
  tissue uptake at 4 h: 0.17 ± 0.01 %ID/g
  tissue uptake at 24 h: 0.12 ± 0.01 %ID/g
  tissue uptake at 72 h: 0.11 ± 0.02 %ID/g
  tissue uptake at 120 h: 0.09 ± 0.08 %ID/g
Muscle uptake
  tissue uptake at 1 h: 0.18 ± 0.14 %ID/g
  tissue uptake at 4 h: 0.02 ± 0.01 %ID/g
  tissue uptake at 24 h: 0.02 %ID/g
  tissue uptake at 72 h: 0.02 %ID/g
  tissue uptake at 120 h: 0.01 %ID/g
Pancreas uptake
  tissue uptake at 1 h: 0.17 ± 0.03 %ID/g
  tissue uptake at 4 h: 0.03 %ID/g
  tissue uptake at 24 h: 0.03 %ID/g
  tissue uptake at 72 h: 0.03 %ID/g
  tissue uptake at 120 h: 0.02 ± 0.01 %ID/g
Salivary uptake
  tissue uptake at 1 h: 0.23 ± 0.06 %ID/g
  tissue uptake at 4 h: 0.05 ± 0.01 %ID/g
  tissue uptake at 24 h: 0.05 ± 0.01 %ID/g
  tissue uptake at 72 h: 0.05 ± 0.02 %ID/g
  tissue uptake at 120 h: 0.03 ± 0.01 %ID/g
Seminal uptake
  tissue uptake at 1 h: 0.38 ± 0.47 %ID/g
  tissue uptake at 4 h: 0.04 ± 0.03 %ID/g
  tissue uptake at 24 h: 0.02 %ID/g
  tissue uptake at 72 h: 0.03 ± 0.01 %ID/g
  tissue uptake at 120 h: 0.01 %ID/g
Spleen uptake
  tissue uptake at 1 h: 0.26 ± 0.05 %ID/g
  tissue uptake at 4 h: 0.09 ± 0.02 %ID/g
  tissue uptake at 24 h: 0.09 ± 0.01 %ID/g
  tissue uptake at 72 h: 0.14 ± 0.06 %ID/g
  tissue uptake at 120 h: 0.13 ± 0.08 %ID/g
Stomach uptake
  tissue uptake at 1 h: 0.1 ± 0.02 %ID/g
  tissue uptake at 4 h: 0.05 ± 0.02 %ID/g
  tissue uptake at 24 h: 0.13 ± 0.11 %ID/g
  tissue uptake at 72 h: 0.14 ± 0.1 %ID/g
  tissue uptake at 120 h: 0.24 ± 0.31 %ID/g
Tail uptake
  tissue uptake at 1 h: 0.52 ± 0.13 %ID/g
  tissue uptake at 4 h: 0.2 ± 0.14 %ID/g
  tissue uptake at 24 h: 0.14 ± 0.14 %ID/g
  tissue uptake at 72 h: 0.08 ± 0.02 %ID/g
  tissue uptake at 120 h: 0.04 ± 0.01 %ID/g
Testes uptake
  tissue uptake at 1 h: 0.26 ± 0.02 %ID/g
  tissue uptake at 4 h: 0.06 %ID/g
  tissue uptake at 24 h: 0.05 %ID/g
  tissue uptake at 72 h: 0.05 ± 0.01 %ID/g
  tissue uptake at 120 h: 0.03 ± 0.01 %ID/g
Thyroid uptake
  tissue uptake at 1 h: 0.27 ± 0.02 %ID/g
  tissue uptake at 4 h: 0.07 ± 0.01 %ID/g
  tissue uptake at 24 h: 0.06 %ID/g
  tissue uptake at 72 h: 0.08 ± 0.01 %ID/g
  tissue uptake at 120 h: 0.04 ± 0.01 %ID/g
Tumor uptake
  tissue uptake at 1 h: 14 ± 2.16 %ID/g
  tissue uptake at 4 h: 20.9 ± 2.99 %ID/g
  tissue uptake at 24 h: 13.8 ± 2.88 %ID/g
  tissue uptake at 72 h: 17.1 ± 4.7 %ID/g
  tissue uptake at 120 h: 16.4 ± 11 %ID/g
